Source: article PMC9149338 (Cellular and Molecular Immunology, 2022)

Target: GST-importin α5 (aa 400–538) (human, UniProt P52294 400-538)
Assay: SPR

GST-importin α5 (aa 400–538), sequence (P52294 400-538): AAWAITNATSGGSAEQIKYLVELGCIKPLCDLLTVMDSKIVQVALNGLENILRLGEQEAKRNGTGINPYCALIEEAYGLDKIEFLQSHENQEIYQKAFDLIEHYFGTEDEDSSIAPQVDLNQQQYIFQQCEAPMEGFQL

Row | Kd [nM] | binding result | Binder
1 | 2.38 | – | KAKTEEKDLKKLKKQEKEEKDFRKKFK [ADAP NLS2 peptide]
2 | – | binds | HLQLKEQKNA [STAT1 NLS peptide]
3 | 2.67 | – | KEREKKREKEEKKRLELEKKEQKEKEKKEQEIKKK [ADAP NLS1 peptide]
